In paper PMC11526107, “ZC3HAV1 facilitates STING activation and enhances inflammation” (Communications Biology, 2024):

B1: Stimulator of interferon genes (STING), endogenous in mouse peritoneal macrophages (natural protein, UniProt Q3TBT3 1-378, looked up)
chain: MPYSNLHPAIPRPRGHRSKYVALIFLVASLMILWVAKDPPNHTLKYLALHLASHELGLLLKNLCCLAEELCHVQSRYQGSYWKAVRACLGCPIHCMAMILLSSYFYFLQNTADIYLSWMFGLLVLYKSLSMLLGLQSLTPAEVSAVCEEKKLNVAHGLAWSYYIGYLRLILPGLQARIRMFNQLHNNMLSGAGSRRLYILFPLDCGVPDNLSVVDPNIRFRDMLPQQNIDRAGIKNRVYSNSVYEILENGQPAGVCILEYATPLQTLFAMSQDAKAGFSREDRLEQAKLFCRTLEEILEDVPESRNNCRLIVYQEPTDGNSFSLSQEVLRHIRQEEKEEVTMNAPMTSVAPPPSVLSQEPRLLISGMDQPLPLRTDLI
notes: mouse STING, endogenous; also called TMEM173; MITA; source: endogenous, mouse peritoneal macrophage lysate
B2: exogenous STING in HEK293T cells (native PAGE, Fig. 3i) (natural protein, UniProt Q3TBT3 1-378, looked up)
chain: B1 chain
notes: Probably the same construct as m9 or m10; the text and legend say only 'the indicated plasmids'; source: HEK293T, transfected, in lysate

Assays:
[1] = target: the molecule itself; test: native gel or EMSA; native PAGE (7% gel, no SDS, sodium deoxycholate in the cathode buffer) and immunoblot of lysates of mouse peritoneal macrophages after HSV-1, ISD or cGAMP; WT against Zc3hav1^-/- or Zc3hav1 siRNA (dimer and oligomer decreased)
[2] = target: the molecule itself; test: native gel or EMSA; native PAGE and immunoblot of lysates of HEK293T cells transfected with STING with or without ZAPS or ZAPL, stimulated with DMXAA

Protein | stoichiometry N [1] | stoichiometry N [2]
B1 | 2 | –
B2 | – | 2
